Test results as given in patent US20100113339A1.
pKd: −log10 of the molar value.

Tests used:
[1] = molecular target: rhesus serum albumin (rhesus) (UniProt Q28522); assay: SPR Biacore 3000, albumin amine-coupled on CM5 chip, nanobody concentration series
[2] = molecular target: mouse serum albumin (mouse) (UniProt P07724); assay: as above
[3] = molecular target: human serum albumin (human) (UniProt P02768); assay: as above
[4] = molecular target: mouse serum albumin (mouse) (UniProt P07724); assay: SPR Biacore 3000; mouse albumin against human/rhesus albumin as reference

Chain of mouse serum albumin (mouse) (P07724 25-608 limits assumed): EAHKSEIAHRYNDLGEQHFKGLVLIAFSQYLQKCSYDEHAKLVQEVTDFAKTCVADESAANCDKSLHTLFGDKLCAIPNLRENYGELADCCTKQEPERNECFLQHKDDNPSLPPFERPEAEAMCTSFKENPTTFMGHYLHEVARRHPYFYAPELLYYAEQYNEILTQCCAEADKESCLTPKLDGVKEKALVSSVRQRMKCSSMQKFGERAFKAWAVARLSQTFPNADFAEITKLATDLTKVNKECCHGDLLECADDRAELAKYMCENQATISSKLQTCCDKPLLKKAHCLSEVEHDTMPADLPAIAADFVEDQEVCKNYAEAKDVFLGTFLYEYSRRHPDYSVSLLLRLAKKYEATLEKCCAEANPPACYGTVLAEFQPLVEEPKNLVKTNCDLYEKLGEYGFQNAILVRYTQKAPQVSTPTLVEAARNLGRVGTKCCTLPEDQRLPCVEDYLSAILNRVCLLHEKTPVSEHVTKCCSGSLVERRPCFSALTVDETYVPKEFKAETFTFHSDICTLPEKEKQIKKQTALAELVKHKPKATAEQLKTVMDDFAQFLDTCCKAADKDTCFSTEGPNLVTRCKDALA
Chain of rhesus serum albumin (rhesus) (Q28522 17-600 limits assumed): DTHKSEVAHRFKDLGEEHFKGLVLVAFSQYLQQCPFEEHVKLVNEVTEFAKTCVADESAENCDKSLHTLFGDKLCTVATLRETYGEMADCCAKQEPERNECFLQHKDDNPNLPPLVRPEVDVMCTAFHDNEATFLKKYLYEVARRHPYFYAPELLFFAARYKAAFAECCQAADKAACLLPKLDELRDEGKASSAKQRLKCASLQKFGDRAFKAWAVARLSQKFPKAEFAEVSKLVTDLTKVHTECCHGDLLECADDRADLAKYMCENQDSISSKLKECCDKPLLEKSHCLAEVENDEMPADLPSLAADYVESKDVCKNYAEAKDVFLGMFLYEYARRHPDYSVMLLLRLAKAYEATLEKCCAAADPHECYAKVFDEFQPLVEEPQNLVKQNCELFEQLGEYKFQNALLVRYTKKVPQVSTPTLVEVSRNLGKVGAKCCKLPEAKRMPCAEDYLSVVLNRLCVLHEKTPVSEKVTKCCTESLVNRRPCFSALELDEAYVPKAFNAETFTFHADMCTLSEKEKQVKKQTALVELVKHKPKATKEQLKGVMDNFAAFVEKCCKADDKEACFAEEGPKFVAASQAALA
Chain of PMP6A6 (ALB1) (VHH) (VHH): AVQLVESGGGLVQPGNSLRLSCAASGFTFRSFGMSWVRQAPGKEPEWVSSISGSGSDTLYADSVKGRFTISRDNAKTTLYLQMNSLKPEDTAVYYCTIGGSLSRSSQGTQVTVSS

Substance PMP6A6 (ALB1) (VHH) has a pKd [1] of 9.28, a koff [1] of 0.000546 s⁻¹ and a kon [1] of 1.05e+06 M⁻¹ s⁻¹. The pKd [2] was 8.19, the koff [2] was 0.00725 s⁻¹ and the kon [2] was 1.11e+06 M⁻¹ s⁻¹. For the same substance, the pKd [3] was 9.24, the koff [3] was 0.00063 s⁻¹ and the kon [3] was 1.11e+06 M⁻¹ s⁻¹. It also gave a factor of difference in affinity for human/rhesus versus mouse serum albumin [4] of 12 fold.
